Fold improvement of affinity over the parent Ab62, fold improvement of affinity over the parent Ab77 and fold improvement of affinity over the parent antibody data for one molecule are collected here from article PMC7646482.

What all share (assay): SPR
Experiment [1] deals with Ab62-S74P (human).
The target of experiment [2] is Ab77 with a T28I mutation (human).
The target of experiment [3] is Ab62-D100dG (human).
Experiment [4] has as its target Other beneficial substitutions in Ab77 and Ab31.

A value given as a limit tells only on which side of the number the result lay.

B1: Recombinant dimeric HARS (aa1-506) (enzyme)
chain: MAERAALEELVKLQGERVRGLKQQKASAELIEEEVAKLLKLKAQLGPDESKQKFVLKTPKGTRDYSPRQMAVREKVFDVIIRCFKRHGAEVIDTPVFELKETLMGKYGEDSKLIYDLKDQGGELLSLRYDLTVPFARYLAMNKLTNIKRYHIAKVYRRDNPAMTRGRYREFYQCDFDIAGNFDPMIPDAECLKIMCEILSSLQIGDFLVKVNDRRILDGMFAICGVSDSKFRTICSSVDKLDKVSWEEVKNEMVGEKGLAPEVADRIGDYVQQHGGVSLVEQLLQDPKLSQNKQALEGLGDLKLLFEYLTLFGIDDKISFDLSLARGLDYYTGVIYEAVLLQTPAQAGEEPLGVGSVAAGGRYDGLVGMFDPKGRKVPCVGLSIGVERIFSIVEQRLEALEEKIRTTETQVLVASAQKKLLEERLKLVSELWDAGIKAELLYKKNPKLLNQLQYCEEAGIPLVAIIGEQELKDGVIKLRSVTSREEVDVRREDLVEEIKRRTGQPL
Regarding B1, the fold improvement of affinity over the parent Ab62 in experiment [1] and in experiment [3] was 3 fold each time. Besides, in experiment [2], the fold improvement of affinity over the parent Ab77 was determined as 3 fold. Further, in experiment [4], the fold improvement of affinity over the parent antibody is below 2 fold.
